Data from patent publication US20120190558A1.

Target: endogenous KCNH2-1A of rat cortical neurons (rat) (UniProt O08962)
Assay: cell-based or functional assay

Which results are given for “Isoform 3.1 of KCNH2 (human) (from UniProt Q12809 103-1159)”?
deactivation time constant (tau) of E-4031-sensitive tail current, slow component, at -100 mV of command potential: 7.43 fold; fold decrease in deactivation time constant (tau) of E-4031-sensitive tail current, fast component, at -100 mV of command potential: 5.88 fold
